Results from patent US20220002423A1 (GENERAL HOSPITAL, published 2022).

Columns and labels:
[1] = biological target: T1, Amino acid residues 74-93 of human TNFR2 (human); experiment: ELISA, antibody with TNFα added
T1 peptide: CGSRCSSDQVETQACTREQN

[2] = biological target: T2, Amino acid residues 66-85 of human TNFR2 (human); experiment: ELISA, antibody with TNFα added
T2 peptide: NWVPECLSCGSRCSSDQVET

binding result [1]: no binding
binding result [2]: no binding
B1: agonistic TNFR2 antibody TNFRAG1 (antibody, V domains shown)
VH: EVQLQQFGAELVKPGASVKISCKASGYTFTDYNIDWVKQSHGKSLEWIGDINPNYDSTSYSQKFRGKATLTVDKSSSTAYMELRSLTSEDTAVYYCARGNSWYFDVWGAGTTVTVSS
VL: QIVLTQSPALMSASPGEKVTMTCSASSSVRYMYWYQQKPRSSPKPWIYLTSNLASGVPARFSGSGSGTSYSLTISSMEAEDAATYYCQQWSSNPLTFGAGTKLELK
notes: the primary antibodies were detected with secondary antibodies against rodent IgG; also called monoclonal TNFR2 antibody TNFRAG1; TNFR2 agonist antibody
